{
  "source": "paper PMC8924211",
  "about": "(Nature Communications, 2022)",
  "binders": {"B1": {"name": "galanin-A2 (full-length galanin labeled with the dye A2 on an additional cysteine at the C-terminal end) (peptide)", "peptide": "GWTLNSAGYLLGPHAVGNHRSFSDKNGLTSC", "modifications": "dye A2 on the additional C-terminal cysteine", "notes": "numbers count on: the mature protein; additional cysteine at the C-terminal end of the peptide, carries the dye A2; source: synthetic peptide (synthesized by Vazyme, China)"}},
  "target": "T1, SNAP-GAL2R V259^6.58A (human, UniProt O43603 1-387, V259^6.58A, Lumi4-Tb on the SNAP tag)",
  "T1 construct": "also called V259A; source: HEK293, transfected, on cells; not shown: SNAP tag, N-terminal, kept",
  "T1 sequence (looked up)": "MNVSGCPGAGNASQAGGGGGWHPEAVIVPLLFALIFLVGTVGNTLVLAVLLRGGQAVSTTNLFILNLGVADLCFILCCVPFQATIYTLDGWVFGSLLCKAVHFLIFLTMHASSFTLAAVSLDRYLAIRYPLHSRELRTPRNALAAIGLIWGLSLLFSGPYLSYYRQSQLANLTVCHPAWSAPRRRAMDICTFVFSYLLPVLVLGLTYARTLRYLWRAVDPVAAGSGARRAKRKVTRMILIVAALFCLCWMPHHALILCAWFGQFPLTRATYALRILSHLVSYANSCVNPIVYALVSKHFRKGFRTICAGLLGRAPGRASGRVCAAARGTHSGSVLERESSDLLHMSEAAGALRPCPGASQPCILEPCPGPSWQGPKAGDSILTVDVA",
  "experiment": "AlphaScreen or HTRF; saturation binding: HEK293 cells transfected with SNAP-tagged receptor (WT or mutant) and labelled with SNAP-Lumi4-Tb, incubated with increasing concentrations of galanin-A2 in the presence or absence of 100 uM unlabeled galanin, 1 h at room temperature; HTRF ratio 665 nm/620 nm",
  "details": "one partner purified",
  "data": [
    {"binder": "B1", "values": [
      {"measurement": "Kd", "result": 180, "unit": "nM"}
    ]}
  ]
}
